The values below come from patent US5994296A, “Human mutant tissue factor compositions useful as tissue factor antagonists” (priority 1998, dated 1999).

The assay concerns recalcified plasma. Briefly: one stage clotting (coagulation) assay of full-length TF mutants in CHO cell lysates. It counts as biochemical. The note with it: for reduction in specific functional activity (loss of function) relative to wild-type TF: coagulant activity normalized to antigen concentration, full-length mutants expressed in CHO cells. As for the experimental part: The full-length TF mutants prepared above were analyzed for function by coagulation assay. […] Coagulation factor deficient plasmas were purchased from George King Bio-medical. The chromogenic substrate, Spectrozyme FXa, was from American Diagnostica Inc. (Greenwich, Conn.).
An alternative approach was to use a polyvalent antibody purified by affinity for capturing TF followed by detection with the TF8-5G9 monoclonal antibody described above.
Initiation of coagulation by wild-type and mutant TF in recalcified plasma was determined after lysis of cell pellets from 2×10^6 cells/ml for each expressed full-length mutant with 15 mM octyl-glucopyranoside in HBS for 15 minutes at 37C. followed by a 3-fold dilution.
All data represented are based on at least three independent determinations performed in duplicate.

Some results are limits rather than exact numbers.

B1: Asn-199: human tissue factor alanine mutant at Asn-199 (protein, UniProt P13726 33-295, looked up, variant N199A)
Tissue factor: SGTTNTVAAYNLTWKSTNFKTILEWEPKPVNQVYTVQISTKSGDWKSKCFYTTDTECDLTDEIVKDVKQTYLARVFSYPAGNVESTGSAGEPLYENSPEFTPYLETNLGQPTIQSFEQVGTKVNVTVEDERTLVRRNNTFLSLRDVFGKDLIYTLYYWKSSSSGKKTAKTNTNEFLIDVDKGENYCFSVQAVIPSRTVARKSTDSPVECMGQEKGEFREIFYIIGAVVFVVIILVIILAISLHKCRKAGVGQSWKENSPLNVS
Turning to B1, the “reduction in specific functional activity (loss of function) relative to wild-type TF” value was 30-80%. Further, the “reduction in tissue factor procoagulant cofactor activity when compared to wt-TF” value (summary statement in the description) is given as at least 75%.

B2: Val-67: human tissue factor mutant with alanine substituted for Val-67 (protein, UniProt P13726 33-295, looked up, variant V67A)
Tissue factor: SGTTNTVAAYNLTWKSTNFKTILEWEPKPVNQVYTVQISTKSGDWKSKCFYTTDTECDLTDEIVKDAKQTYLARVFSYPAGNVESTGSAGEPLYENSPEFTPYLETNLGQPTIQSFEQVGTKVNVTVEDERTLVRRNNTFLSLRDVFGKDLIYTLYYWKSSSSGKKTAKTNTNEFLIDVDKGENYCFSVQAVIPSRTVNRKSTDSPVECMGQEKGEFREIFYIIGAVVFVVIILVIILAISLHKCRKAGVGQSWKENSPLNVS
On to B2, for which the “reduction in specific functional activity (loss of function) relative to wild-type TF” value came to 53%.

B3: Tyr-71: human tissue factor mutant with alanine substituted for Tyr-71 (protein, UniProt P13726 33-295, looked up, variant Y71A)
Tissue factor: SGTTNTVAAYNLTWKSTNFKTILEWEPKPVNQVYTVQISTKSGDWKSKCFYTTDTECDLTDEIVKDVKQTALARVFSYPAGNVESTGSAGEPLYENSPEFTPYLETNLGQPTIQSFEQVGTKVNVTVEDERTLVRRNNTFLSLRDVFGKDLIYTLYYWKSSSSGKKTAKTNTNEFLIDVDKGENYCFSVQAVIPSRTVNRKSTDSPVECMGQEKGEFREIFYIIGAVVFVVIILVIILAISLHKCRKAGVGQSWKENSPLNVS
In the case of B3, the “reduction in specific functional activity (loss of function) relative to wild-type TF” value was 98%.

B4: Thr-106: human tissue factor mutant with Ala replacement for Thr-106 (protein, UniProt P13726 33-295, looked up, variant T106A)
Tissue factor: SGTTNTVAAYNLTWKSTNFKTILEWEPKPVNQVYTVQISTKSGDWKSKCFYTTDTECDLTDEIVKDVKQTYLARVFSYPAGNVESTGSAGEPLYENSPEFTPYLEANLGQPTIQSFEQVGTKVNVTVEDERTLVRRNNTFLSLRDVFGKDLIYTLYYWKSSSSGKKTAKTNTNEFLIDVDKGENYCFSVQAVIPSRTVNRKSTDSPVECMGQEKGEFREIFYIIGAVVFVVIILVIILAISLHKCRKAGVGQSWKENSPLNVS
B4: the “reduction in specific functional activity (loss of function) relative to wild-type TF” value is reported as “more than 50%”.

B5: Arg-200/Lys-201: human tissue factor alanine double mutant at Arg-200 and Lys-201 (protein, UniProt P13726 33-295, looked up, variant R200A K201A)
Tissue factor: SGTTNTVAAYNLTWKSTNFKTILEWEPKPVNQVYTVQISTKSGDWKSKCFYTTDTECDLTDEIVKDVKQTYLARVFSYPAGNVESTGSAGEPLYENSPEFTPYLETNLGQPTIQSFEQVGTKVNVTVEDERTLVRRNNTFLSLRDVFGKDLIYTLYYWKSSSSGKKTAKTNTNEFLIDVDKGENYCFSVQAVIPSRTVNAASTDSPVECMGQEKGEFREIFYIIGAVVFVVIILVIILAISLHKCRKAGVGQSWKENSPLNVS
Take B5: the “reduction in specific functional activity (loss of function) relative to wild-type TF” value was 30-80%.

B6: Thr-139/Ser-142: human tissue factor alanine double mutant at Thr-139 and Ser-142 (protein, UniProt P13726 33-295, looked up, variant T139A S142A)
Tissue factor: SGTTNTVAAYNLTWKSTNFKTILEWEPKPVNQVYTVQISTKSGDWKSKCFYTTDTECDLTDEIVKDVKQTYLARVFSYPAGNVESTGSAGEPLYENSPEFTPYLETNLGQPTIQSFEQVGTKVNVTVEDERTLVRRNNAFLALRDVFGKDLIYTLYYWKSSSSGKKTAKTNTNEFLIDVDKGENYCFSVQAVIPSRTVNRKSTDSPVECMGQEKGEFREIFYIIGAVVFVVIILVIILAISLHKCRKAGVGQSWKENSPLNVS
On to B6, for which the “reduction in specific functional activity (loss of function) relative to wild-type TF” value was 30-50%.

B7: Arg-131: human tissue factor alanine mutant at Arg-131 (protein, UniProt P13726 33-295, looked up, variant R131A)
Tissue factor: SGTTNTVAAYNLTWKSTNFKTILEWEPKPVNQVYTVQISTKSGDWKSKCFYTTDTECDLTDEIVKDVKQTYLARVFSYPAGNVESTGSAGEPLYENSPEFTPYLETNLGQPTIQSFEQVGTKVNVTVEDEATLVRRNNTFLSLRDVFGKDLIYTLYYWKSSSSGKKTAKTNTNEFLIDVDKGENYCFSVQAVIPSRTVNRKSTDSPVECMGQEKGEFREIFYIIGAVVFVVIILVIILAISLHKCRKAGVGQSWKENSPLNVS
Turning to B7, the “reduction in specific functional activity (loss of function) relative to wild-type TF” value is recorded as 30-50%.

B8: Arg-136: human tissue factor alanine mutant at Arg-136 (protein, UniProt P13726 33-295, looked up, variant R136A)
Tissue factor: SGTTNTVAAYNLTWKSTNFKTILEWEPKPVNQVYTVQISTKSGDWKSKCFYTTDTECDLTDEIVKDVKQTYLARVFSYPAGNVESTGSAGEPLYENSPEFTPYLETNLGQPTIQSFEQVGTKVNVTVEDERTLVRANNTFLSLRDVFGKDLIYTLYYWKSSSSGKKTAKTNTNEFLIDVDKGENYCFSVQAVIPSRTVNRKSTDSPVECMGQEKGEFREIFYIIGAVVFVVIILVIILAISLHKCRKAGVGQSWKENSPLNVS
With B8, the “reduction in specific functional activity (loss of function) relative to wild-type TF” value is listed as 30-50%.

B9: Glu-105: human tissue factor mutant with Ala replacement for Glu-105 (protein, UniProt P13726 33-295, looked up, variant E105A)
Tissue factor: SGTTNTVAAYNLTWKSTNFKTILEWEPKPVNQVYTVQISTKSGDWKSKCFYTTDTECDLTDEIVKDVKQTYLARVFSYPAGNVESTGSAGEPLYENSPEFTPYLATNLGQPTIQSFEQVGTKVNVTVEDERTLVRRNNTFLSLRDVFGKDLIYTLYYWKSSSSGKKTAKTNTNEFLIDVDKGENYCFSVQAVIPSRTVNRKSTDSPVECMGQEKGEFREIFYIIGAVVFVVIILVIILAISLHKCRKAGVGQSWKENSPLNVS
B9: the “reduction in specific functional activity (loss of function) relative to wild-type TF” value is given as “more than 50%”.
